In a protein production outcome set (Wang et al. 2014):

Experiment: label from the status in PepcDB records

Sequence	protein production
MEYVNPEGLRLDGRRFNEMRQIVAEVGVVSKADGSAVFEMGNTKVIAAVYGPREIQNKSQQKKNDHAVVLCEYSMAQFSTGDRRRQKFDRRSTELSLVIRQTMEACILTELMPHSQIDIFLQVLQADGGTRSACINAATLALADAGIPMRDLAVSCSAGYLNSTPLLDLNYVEDSAGGADVTVGILPKLDKVSLLQMDAKLPMETFETVFALASEGCKAIAERIREVLQENTKQLEYRRAA	failed
SLQCIFLISDSGEVMLEKQLTGHRVDRSICAWFWDQYISQGDSFKALPVIASPTHYLFQIVRDGITFLACSQVEMPPLMAIEFLCRVADVLSEYLGGLNEDLIKDNFIIVYELLDEMIDNGFPLTTEPSILKEMIAPPNLVSKMLSVVTGNASNVSDTLPSGAGSCVPWRPTDPKYSSNEVYVDLVEEMDAIVNRDGELVKCEIYGEVQMNSQLTGFPDLTLSFANPSILEDMRFHPCVRYRPWESHQVLSFVPPDGEFKLMSYRVKKLKNTPVYVKPQITSDSGTCRISVLVGIRSDPGKTIESITLSFQLPHCVSSADLSSNHGTVTILSNKTCTWTIGRIPKDKTPCLSGTLALEPGLERLHVFPTFKLGFKIMGIALSGLRIEKLDLQTIPPRLYKGFRAQTRTGEFDVRL	failed
MGHHHHHHSHGSYANEISSSIIINRPAERLFDLWRKPETLPILMGHFASIEILNHTDSNWRINTPIGSLIEWQARIIDEKPGEYIHWRSLEGARVPNEGRLSFQPAASEAGTAVTLTIRYNPPGGLIGKKIGQMFDMFSRDMLTKTLYRFKKLAEDER	not failed
MKALVVSDDINFLKQACTLVNGKAEYDAVYVGEGRVSGVGASTLYTVKKGTPYDAVADGILEIMGNYDIIVAGSTEFGREVAGYIAGKTGYYAATEIFSLEFSNGKAKTKRFFYGGKTVIEEESDAKVFTVAPGVIEAKEFESKPEEKDLPIKPSKVRVNKVVPKNAGGVR	failed
MITNNVSLLIMGIDENQERQKEYNGAFHTDALLLATFNKDDKTVKLTSIPRDTYTYVPVEKKKDKITHAYGSGFVKNGKDGGPQTSVEAVEKLLQVPVDYFVKFNFNSFTKIVDGLDGIEVDVPVEFTEQNSKDEPDAIHLKKGLQKLTGEEALALARTRHIDSDAMRGQRQQLVIEAILSKLKSVGSITKLEKIVEAVDGDFKTNLAMDDILSFYKYGLNCSIEKIQLAGDDLYLPNGPNGQRVYYYNPNKKDLQSLSNTLRTHLGLSEKQIEENLEHHHHHH	not failed
MLESVAAEPRRAAATDQAGTEARKQRLRRRLERLIGIAATEGNELVPLRNGDEIFPAMLRAIRTAEHTVDMMTFVYWRGQIARDFAAALAERARAGVRVRLLLDGFGAKQIEEGLLESMNSAGVEVAWFRKPLWLSPLKQNHRCHRKVLVVDEHTAFTGGVGIAEEWGGDARNPSEWRDTHVQVRGPAVDGIAAAFAQNWAECHDELFDERDRFTEHEQSGRATVQVVRGSASFGWQDMQTLVRVMLASAEERFRLSTAYFAPDSYFVDLLCATARRGVQVQILLPGPYTDQRACRLAGQHYYGTLLDAGVEIRQYQPTMLHTKIMTVDGVAALIGSSNFNRRSMEHDEEIMLAVLDETFTAALDRDFEEDRERAEAIVAARWKHRSPVQRLKEAIVAPVRRFL	failed
MAGASLFTLLDDIATLLDDVSILTKVAAKKTAGVLGDDLALNAQQVTGVTADRELPVVWAVAKGSLVNKVILVPAALAISALEAWLRGRGYNVPLVMPLMMIGGAYLCFEGVEKLAHKFLHSEEEDAQRHAERTRVLADEAVDVVALEKDKVKGAIRTDFILSAEIIVLSLGVVAGVSFGQQVAVLVAIALAMTIGVYGLVAGIVKLDDLGLYLSKKGAALAALGRGILVAAPWLMKFLSVAGTLAMFLVGGGILVHNIPTLHHLVVDLAKASGSLGWLVEALGNMLVGVVAGAVVLAAVTGFQKLRGNRPRTDSVQSLRRQAKSRTG	failed
MDTPSRRSFLLAGGSFAIGVGAGLGIAHRDDVLPSRVVWAFETTGRIVSSPTVGDGTVYVGSDDSTVHSVSTSDGTRRTTARLHTKAGVFSSPALGADGGLYVGSTDTAIYGLFSSPGARDEWRFETTDWVTASPAVADGTVYVGSTDGTMYALNAETGAEQWRFETGDGIVSSPAVVDGTVYVGSTDGTVYALDADSGTDRWQFDTEGRVYSSPTVADGTVYVGSYDANIYAIDTTDGVEQWQFETGDSIWSSPTVLEETLWIGSKDAALYAVATEDGSEQWRFPTGGEVNSSPTVAGETVYVGSDDANLYAVAASDGSERWTFETGGAVQSSPTVADGTVYVGSGDSTLYALDADETGSSEGSRAELRTLGYFAE	failed
LPKPGVYYFPWEVSDGHVPEGSTLRTFGRLYLYDMARSLMTLAAPQKPDQCQLLVCTNLVEPFEAHVNFLYMVLGDLERMEGGAFVVRARLLTCVEGMDLSLLEKAILEQRRHLQKRQQPIGDASTLQTPTPAPQSIPSDSLSLEPENRG	failed
MTATGLERSTANAQSLRNDSHQRSFHRFDGLTASSDITLEAVSSVDAIAAADWDACARSGTIVPHPDGAGGACTTATAAYNPFLSHAFFTALEQSGSASPRTGWGPRHLIAKHEGAIVGIVPCYLKSHSQGEYVFDRGWADAYERAGGNYYPKLQVSVPFTPATGPRLLIRDRIDSARVAGALANGLMALCDLSKASSVHVTFARESEWRFLAECGFLQRTDQQFHWHNAGYSSFDDFLATMNSRHRKGIKRERRDAVASGITIHHLTGADITEDAWDAFFEFYIETGSRKWGRPYLTREFYSLIGQSMSEDVLLVMAKRNGRWIAGAINFIGGDTLFGRHWGAIEHHPFLHFEVCYYQAIDFAITRGLKVVEAGAQGEHKIARGYLPQTTYSAHFIADPALRRAIADYLKRERMYVDEMGRELTEAGPFKKGNIADPA	failed
MDEIKIEKLKKLDKKALNELIDVYMSGYEGLEEYGGEGRDYARNYIKWCWKKASDGFFVAKVGDKIVGFIVCDKDWFSKYEGRIVGAIHEFVVDKKFQGKGIGRKLLITCLDFLGKYNDTIELWVGEKNYGAMNLYEKFGFKKVGKSGIWVRMIKRQNL	not failed
MAAKLEKTTNSFEVITREWYAKFSPTWNESHGERIIRRFERDIFPWIGSKPISEIAAPELLATVRRIESRGAVETAHRALGNCGQVFRYAIATARATRDISADLRGALPPVKGEHLEHHHHHH	not failed
MGHHHHHHSHCDSDCLWVGLAGPQILPPCRSIVRTLHQHKLGRASWPSVQQGLQQSFLHTLDSYRILQKAAPFDRRATSLAWHPTHPSTVAVGSKGGDIMLWNFGIKDKPTFIKGIGAGGSITGLKFNPLNTNQFYASSMEGTTRLQDFKGNILRVFASSDTINIWFCSLDVSASSRMVVTGDNVGNVILLNMDGKELWNLRMHKKKVTHVALNPCCDWFLATASVDQTVKIWDLRQVRGKASFLYSLPHRHPVNAACFSPDGARLLTTDQKSEIRVYSASQWDCPLGLIPHPHRHFQHLTPIKAAWHPRYNLIVVGRYPDPNFKSCTPYELRTIDVFDGNSGKMMCQLYDPESSGISSLNEFNPMGDTLASAMGYHILIWSQEEARTRK	failed
MLFGDSVAIAFAQVSIHSRSKGHSAVAAAAYRSGARLYDDRIGRAYDFSKRDDVAFSEILLPDGTTDSFLERDYLWNEVERAENRSNSQLCKDFVLALPRELNLEQQIELAKRFARTHFVEKGLPADIAIHDHGDGNPHAHILIPTRRLENNRFSKYKARDLNPVFAKGFLVEQDYWGEQWREMQNEFFIENNLDLQVDANHLIAERHRGKHHNANAHYLLEENQLIQQARMELTRDNIDLVIDHLSTQYSVFTRRDVERLLFKTFQASDSPQEYLQFVERVLGHQDLVALGDNNKGEPSFTTRTHLMQEAQLLHDIEAMMVSKNHVVHQPIDSLAQQYRLSEEQYEAFRYITQSPDISVVIGRPGTGKSYLLKPLNEYYIQAGMEVIGAALSGKVAKALQAETGITSSTIKSLSYRLANDMMQLSDKHVLIIDEAGMVDFSSMGYLIKEAHKAGSKVVLIGDPDQLKPIQKGEIFRGIAARTGYIELENIKRQQDLGDRQASLNLAKGDIDKAIQHYQDKGAITITDTKLQAIEQVVADWKQDLESTNMADSIMLSYTRKAVNHLNDLAREALIVENKIGEENIVYQGLERSLKISTGERLLLRENNKVLGVRNGDTATVKEINVQQMKIQLDSGELLIIPKEYKALDYAYALTVHKSQGMTAKKVRVLIDSKYWDRNLSFVAMTRHKEQLNIYADKENHPTEQALKQTLSRSSTKDNVIDWPLDFAIRAGFDSDSLISRALNHIVGVGHKIKQAYNFIVNYEASLLKARHQERFQDIGQAIADAKQEALKVDTKEFESNDCKTSEQSFGILKKDFPQLVELETLIKRRQRMTGYFAEKTDKQIMALTQQLLTNKTFANQVKYQVPEFYQKLQSIDNKQKEKALLQNH	failed
MGIFETMSQVRRLPQALAAAVATPPALAGSGTLRGLIGLDDSLGEAVTTRAEALTIPAVLRARNLLSTTVARTPLVCDGTLPPFVPVAAPPGAATMQTPFHRMLATADDLLFNGVACWALDRDESGTCIGAIHIPLDTWQIEENTVRVNGKAVDPMEVCIFVGIHGGLLTHASETFTDARNLVRAAARVAQNPAALIELRQTNNAQLSPDDVDRIINGYVAARRGRNSGVGFSSSGLEVHEHEMAKENLLIEGRNAAAVDVARAMNVPAAFIDATVGGTSLSYQNAASRMIELVTFGVEPLMSAIEARLNQPDMHADHLANPLKFDPAALLDAIPTTPTIGAQPHGENS	not failed
LRGMLPGSKLCEKKIVLSPSANMAAELKSEGKLFMLKRLRLADLEPMAIETSLLPINRFPSLENRNFENESLYEILEEEYNIKMTKAQQKIEVRMPTPQESELLDINYTIPVFHFKQVTFDQNDTIFEVAHSVYRGDRYEIETEIYR	failed
MITIEISINLELIISFYLLFILGANNVANAIGTAYASRATTYRNLLILFSISVIIGSLFAKNVGSTVNSLSSDALTALIISALVMTLSTYKKVPISLHTVIICSLIGLNFNSSNLYVFGEILLSWILSPIIAVVIAYILYSAYEKIDISILKKITMIRYFLLISAAVVAFNLGSNDLPTVLGTFTTSQIIYIIGAIFLCLGAYLYGNRVSETLSMITNLSVSSAFIAQLSGGLAVTIFTALGMPVSTTQAIVGGILGVGLTKGIKTVRWKVLKNIIFWWVVAPIIALIIGFIINRMI	failed
MSRDPTYTINEHDLSFADGRFYVTFKADKSSETVRLNSSCLGNTIIKKLQVEDDNTMHDFVKPKVTTQQAFGLAQQVKELDLQLKDPKSDLWGKIKFNNKAMLVEYANKEMSSAIAQSAEQILLQVKSIDDERYSKFEQTLNGIKQTVKSESVESARTQLASMFDSRISGLDGKYSRLSQTIDSLSSRLDDGVGNYSTLSQKVSGIDLRVSNAANDVSRLSQTAQGLQSQITNANQNYSSLSQTVQGLQTTVRDNQSNATSRINQLSDLISTKVSKGDVETTIAQSYDKIAFAIRDKLPASKMSGSEIISAINLDRSGVKITGKNITLDGNSYISNAVIKDAHIANMDAGKINTGYLNANRIATEAITGEKIKMDYAFFNKLTANEGYFRTLFAKDIFATSVQSVTLSASKITGGVLAATNGASQWDLNNANMTFNRDATINFNSKNNALVRKDGTHTAFVHFSNATPKGYRGSALYASIGITSSGDGIDSASSGRFAGLRSFRYATGYNHTAAVDQTELYGDNVLIADDFNINRGFKFRPDKMEKVLDMNDLYAAVVALGRCWGHLANVGWNTAHSNFTSAVSRELNNYITKI	failed
MIIPKMSRHALIGGGTGFIGRNLANHLTKKGYDVTVISRMPGAKRITWHELEKNGIPGSVNAVVNATGQNTLDPTRRWTPGFQQNVWNSRINSSKTLAQAIKSAPQVSSFVNLCGVSHYKPSESKVYTEEDQVQGFDYMSRLCLAWEEAAHTGSEQDCKTTILRCGAVVGHGGGMVQSMWLPFKFGVGGPLGNGNQIMPWIHLHDLCSLIQYIIEKPVPGVVNAVAPEITSNLEFSKAFAKALHRPCIFGVPEFVVQAIFGPERAALVLSGAKVKPQKALSSGFKFQYPSVKEAVTQLTLKG	failed
